# Test results from PMC9482650, “Quantitative fragmentomics allow affinity mapping of interactomes” (Nature Communications, 2022).
# B1: SCN8A, Q9UQD0 (peptide)
# chain: RQKEVRESKC
# B2: MARCHF3, Q86UD3 (peptide)
# chain: VKRNSKETVV
# Molecular target: T1, APBA1_1, Q02410
# T1 sequence (Q02410 651-752, limits assumed, looked up): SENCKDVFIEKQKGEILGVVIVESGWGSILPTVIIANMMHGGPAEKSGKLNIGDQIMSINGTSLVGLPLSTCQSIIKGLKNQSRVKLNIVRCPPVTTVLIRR
# Test: holdup assay
# Design: key: below the threshold = too weak to quantify, mostly under pKd 3.1 to 4
# Settings: plain residues with an end cap or a label only (N-terminal biotin on a linker: ado-ado)
row,Binder,pKd
1,B1,below the threshold
2,B2,below the threshold

# Molecular target: T2, APBA1_2, Q02410
# T2 sequence (Q02410 742-832, limits assumed, looked up): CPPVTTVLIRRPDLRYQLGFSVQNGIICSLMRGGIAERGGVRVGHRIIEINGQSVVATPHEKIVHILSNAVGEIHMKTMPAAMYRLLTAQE
# Test: holdup assay
# Design: key: below the threshold = too weak to quantify, mostly under pKd 3.1 to 4
# Settings: plain residues with an end cap or a label only (N-terminal biotin on a linker: ado-ado)
row,Binder,pKd
1,B1,below the threshold
2,B2,3.88

# Molecular target: T3, ARHGAP21, Q5T5U3
# T3 sequence (Q5T5U3 45-169, limits assumed, looked up): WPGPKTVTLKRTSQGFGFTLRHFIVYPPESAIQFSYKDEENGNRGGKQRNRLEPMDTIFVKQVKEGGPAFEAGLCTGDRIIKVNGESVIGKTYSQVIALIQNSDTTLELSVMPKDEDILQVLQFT
# Test: holdup assay
# Design: key: below the threshold = too weak to quantify, mostly under pKd 3.1 to 4
# Settings: plain residues with an end cap or a label only (N-terminal biotin on a linker: ado-ado)
row,Binder,pKd
1,B1,below the threshold
2,B2,below the threshold

# Molecular target: T4, DLG3_3, Q92796
# T4 sequence (Q92796 374-475, limits assumed, looked up): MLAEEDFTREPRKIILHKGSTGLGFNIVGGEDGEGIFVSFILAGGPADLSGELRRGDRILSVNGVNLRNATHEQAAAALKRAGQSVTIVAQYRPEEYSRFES
# Test: holdup assay
# Design: key: below the threshold = too weak to quantify, mostly under pKd 3.1 to 4
# Settings: plain residues with an end cap or a label only (N-terminal biotin on a linker: ado-ado)
row,Binder,pKd
1,B1,3.58
2,B2,4.7

# Molecular target: DLG4_1, P78352
# Sequence (P78352 62-152): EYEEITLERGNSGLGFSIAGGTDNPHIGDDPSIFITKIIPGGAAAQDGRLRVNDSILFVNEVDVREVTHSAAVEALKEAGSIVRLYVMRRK
# Test: holdup assay
# Design: key: below the threshold = too weak to quantify, mostly under pKd 3.1 to 4
# Settings: plain residues with an end cap or a label only (N-terminal biotin on a linker: ado-ado)
row,Binder,pKd
1,B1,below the threshold
2,B2,5.48

# Molecular target: GRID2IP_2, A4D2P6
# Sequence (A4D2P6 272-370): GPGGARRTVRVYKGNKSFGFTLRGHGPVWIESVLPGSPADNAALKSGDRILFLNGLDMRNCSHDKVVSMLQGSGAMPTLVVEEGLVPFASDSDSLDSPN
# Test: holdup assay
# Design: key: below the threshold = too weak to quantify, mostly under pKd 3.1 to 4
# Settings: plain residues with an end cap or a label only (N-terminal biotin on a linker: ado-ado)
row,Binder,pKd
1,B1,3.69
2,B2,below the threshold

# Molecular target: GRIP2_3, Q9C0E4
# Sequence (Q9C0E4 238-339): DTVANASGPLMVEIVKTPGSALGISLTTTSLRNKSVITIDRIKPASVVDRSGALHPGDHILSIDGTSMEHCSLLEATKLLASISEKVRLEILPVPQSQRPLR
# Test: holdup assay
# Design: key: below the threshold = too weak to quantify, mostly under pKd 3.1 to 4
# Settings: plain residues with an end cap or a label only (N-terminal biotin on a linker: ado-ado)
row,Binder,pKd
1,B1,below the threshold
2,B2,below the threshold

# Molecular target: GRIP2_5, Q9C0E4
# Sequence (Q9C0E4 544-642): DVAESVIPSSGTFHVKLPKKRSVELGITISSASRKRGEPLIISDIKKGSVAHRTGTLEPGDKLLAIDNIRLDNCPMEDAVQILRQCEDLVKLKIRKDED
# Test: holdup assay
# Design: key: below the threshold = too weak to quantify, mostly under pKd 3.1 to 4
# Settings: plain residues with an end cap or a label only (N-terminal biotin on a linker: ado-ado)
row,Binder,pKd
1,B1,below the threshold
2,B2,below the threshold

# Molecular target: IL16_1, Q14005
# Sequence (Q14005 210-306): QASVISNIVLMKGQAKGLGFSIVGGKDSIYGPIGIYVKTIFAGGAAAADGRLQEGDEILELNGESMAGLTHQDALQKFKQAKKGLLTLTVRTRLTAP
# Test: holdup assay
# Design: key: below the threshold = too weak to quantify, mostly under pKd 3.1 to 4
# Settings: plain residues with an end cap or a label only (N-terminal biotin on a linker: ado-ado)
row,Binder,pKd
1,B1,3.7
2,B2,3.94

# Molecular target: Inadl_4, Q8NI35
# Sequence (Q8NI35 547-651): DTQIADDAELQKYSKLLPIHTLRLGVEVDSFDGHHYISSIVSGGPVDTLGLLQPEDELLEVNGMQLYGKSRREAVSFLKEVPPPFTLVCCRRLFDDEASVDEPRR
# Test: holdup assay
# Design: key: below the threshold = too weak to quantify, mostly under pKd 3.1 to 4
# Settings: plain residues with an end cap or a label only (N-terminal biotin on a linker: ado-ado)
row,Binder,pKd
1,B1,below the threshold
2,B2,below the threshold

# Molecular target: LDB3, O75112
# Sequence (O75112 1-94): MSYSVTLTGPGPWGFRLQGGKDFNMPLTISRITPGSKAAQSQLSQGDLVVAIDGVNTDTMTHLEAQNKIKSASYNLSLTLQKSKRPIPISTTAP
# Test: holdup assay
# Design: key: below the threshold = too weak to quantify, mostly under pKd 3.1 to 4
# Settings: plain residues with an end cap or a label only (N-terminal biotin on a linker: ado-ado)
row,Binder,pKd
1,B1,below the threshold
2,B2,below the threshold

# Molecular target: MAGI1_1, Q96QZ7
# Sequence (Q96QZ7 1-106): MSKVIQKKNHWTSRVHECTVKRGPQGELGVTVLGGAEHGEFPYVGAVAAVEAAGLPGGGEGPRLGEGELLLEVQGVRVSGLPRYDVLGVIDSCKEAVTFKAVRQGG
# Test: holdup assay
# Design: key: below the threshold = too weak to quantify, mostly under pKd 3.1 to 4
# Settings: plain residues with an end cap or a label only (N-terminal biotin on a linker: ado-ado)
row,Binder,pKd
1,B1,below the threshold
2,B2,below the threshold

# Molecular target: MAGI2_3, Q86UL8
# Sequence (Q86UL8 600-682): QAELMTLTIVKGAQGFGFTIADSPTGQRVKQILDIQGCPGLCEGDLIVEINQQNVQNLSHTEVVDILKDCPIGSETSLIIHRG
# Test: holdup assay
# Design: key: below the threshold = too weak to quantify, mostly under pKd 3.1 to 4
# Settings: plain residues with an end cap or a label only (N-terminal biotin on a linker: ado-ado)
row,Binder,pKd
1,B1,3.51
2,B2,4.2

# Molecular target: MAST2, Q6P0Q8
# Sequence (Q6P0Q8 1099-1202): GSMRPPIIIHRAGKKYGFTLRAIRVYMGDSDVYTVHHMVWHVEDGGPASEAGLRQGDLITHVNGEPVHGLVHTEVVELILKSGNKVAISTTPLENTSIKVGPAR
# Test: holdup assay
# Design: key: below the threshold = too weak to quantify, mostly under pKd 3.1 to 4
# Settings: plain residues with an end cap or a label only (N-terminal biotin on a linker: ado-ado)
row,Binder,pKd
1,B1,4.82
2,B2,4.68

# Molecular target: T5, MPDZ_10, O75970
# T5 sequence (O75970 1624-1722, limits assumed, looked up): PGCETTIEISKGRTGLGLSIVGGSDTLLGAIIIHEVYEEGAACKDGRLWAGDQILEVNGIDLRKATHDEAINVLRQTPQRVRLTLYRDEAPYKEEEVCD
# Test: holdup assay
# Design: key: below the threshold = too weak to quantify, mostly under pKd 3.1 to 4
# Settings: plain residues with an end cap or a label only (N-terminal biotin on a linker: ado-ado)
row,Binder,pKd
1,B1,3.8
2,B2,below the threshold

# Molecular target: T6, MPDZ_5, O75970
# T6 sequence (O75970 695-796, limits assumed, looked up): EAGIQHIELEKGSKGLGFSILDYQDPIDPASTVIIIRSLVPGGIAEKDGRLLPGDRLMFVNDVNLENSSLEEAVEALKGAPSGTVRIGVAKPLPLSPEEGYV
# Test: holdup assay
# Design: key: below the threshold = too weak to quantify, mostly under pKd 3.1 to 4
# Settings: plain residues with an end cap or a label only (N-terminal biotin on a linker: ado-ado)
row,Binder,pKd
1,B1,below the threshold
2,B2,below the threshold

# Molecular target: T7, MPP7, Q5T2T1
# T7 sequence (Q5T2T1 134-230, limits assumed, looked up): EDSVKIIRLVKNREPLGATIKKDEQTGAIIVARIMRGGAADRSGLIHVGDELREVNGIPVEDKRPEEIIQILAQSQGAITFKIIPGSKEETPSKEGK
# Test: holdup assay
# Design: key: below the threshold = too weak to quantify, mostly under pKd 3.1 to 4
# Settings: plain residues with an end cap or a label only (N-terminal biotin on a linker: ado-ado)
row,Binder,pKd
1,B1,below the threshold
2,B2,below the threshold

# Molecular target: NHERF2_2, Q15599
# Sequence (Q15599 142-238): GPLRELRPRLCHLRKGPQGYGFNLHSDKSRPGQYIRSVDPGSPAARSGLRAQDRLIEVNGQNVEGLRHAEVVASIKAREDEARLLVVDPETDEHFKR
# Test: holdup assay
# Design: key: below the threshold = too weak to quantify, mostly under pKd 3.1 to 4
# Settings: plain residues with an end cap or a label only (N-terminal biotin on a linker: ado-ado)
row,Binder,pKd
1,B1,3.57
2,B2,below the threshold

# Molecular target: T8, NHERF3_1, Q5T2W1
# T8 sequence (Q5T2W1 4-100, limits assumed, looked up): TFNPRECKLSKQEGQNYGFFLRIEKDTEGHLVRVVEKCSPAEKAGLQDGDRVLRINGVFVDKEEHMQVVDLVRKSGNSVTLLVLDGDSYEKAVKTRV
# Test: holdup assay
# Design: key: below the threshold = too weak to quantify, mostly under pKd 3.1 to 4
# Settings: plain residues with an end cap or a label only (N-terminal biotin on a linker: ado-ado)
row,Binder,pKd
1,B1,4.71
2,B2,below the threshold

# Molecular target: NHERF4_2, Q86UT5
# Sequence (Q86UT5 220-308): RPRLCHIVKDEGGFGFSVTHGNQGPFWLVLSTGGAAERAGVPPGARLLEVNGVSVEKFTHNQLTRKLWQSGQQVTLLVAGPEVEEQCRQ
# Test: holdup assay
# Design: key: below the threshold = too weak to quantify, mostly under pKd 3.1 to 4
# Settings: plain residues with an end cap or a label only (N-terminal biotin on a linker: ado-ado)
row,Binder,pKd
1,B1,below the threshold
2,B2,below the threshold

# Molecular target: NHERF4_4, Q86UT5
# Sequence (Q86UT5 464-550): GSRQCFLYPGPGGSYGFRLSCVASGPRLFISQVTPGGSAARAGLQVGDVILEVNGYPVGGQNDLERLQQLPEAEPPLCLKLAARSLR
# Test: holdup assay
# Design: key: below the threshold = too weak to quantify, mostly under pKd 3.1 to 4
# Settings: plain residues with an end cap or a label only (N-terminal biotin on a linker: ado-ado)
row,Binder,pKd
1,B1,below the threshold
2,B2,below the threshold

# Molecular target: NOS1, P29475
# Sequence (P29475 9-101): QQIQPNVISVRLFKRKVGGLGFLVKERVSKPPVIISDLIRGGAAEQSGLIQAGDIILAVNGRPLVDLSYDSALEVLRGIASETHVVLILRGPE
# Test: holdup assay
# Design: key: below the threshold = too weak to quantify, mostly under pKd 3.1 to 4
# Settings: plain residues with an end cap or a label only (N-terminal biotin on a linker: ado-ado)
row,Binder,pKd
1,B1,below the threshold
2,B2,4.03

# Molecular target: PARD3_3, Q8TEW0
# Sequence (Q8TEW0 582-685): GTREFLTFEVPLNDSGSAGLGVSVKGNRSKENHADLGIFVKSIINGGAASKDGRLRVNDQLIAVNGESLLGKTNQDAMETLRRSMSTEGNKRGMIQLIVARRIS
# Test: holdup assay
# Design: key: below the threshold = too weak to quantify, mostly under pKd 3.1 to 4
# Settings: plain residues with an end cap or a label only (N-terminal biotin on a linker: ado-ado)
row,Binder,pKd
1,B1,below the threshold
2,B2,below the threshold

# Molecular target: T9, PDZD2_2, O15018
# T9 sequence (O15018 329-429, limits assumed, looked up): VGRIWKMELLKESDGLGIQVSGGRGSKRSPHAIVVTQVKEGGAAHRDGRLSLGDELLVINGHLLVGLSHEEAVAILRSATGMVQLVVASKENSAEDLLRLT
# Test: holdup assay
# Design: key: below the threshold = too weak to quantify, mostly under pKd 3.1 to 4
# Settings: plain residues with an end cap or a label only (N-terminal biotin on a linker: ado-ado)
row,Binder,pKd
1,B1,3.94
2,B2,4.17

# Molecular target: PICK1, Q9NRD5
# Sequence (Q9NRD5 17-115): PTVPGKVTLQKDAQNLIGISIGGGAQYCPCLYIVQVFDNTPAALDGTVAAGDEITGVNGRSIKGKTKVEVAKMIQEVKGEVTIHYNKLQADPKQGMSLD
# Test: holdup assay
# Design: key: below the threshold = too weak to quantify, mostly under pKd 3.1 to 4
# Settings: plain residues with an end cap or a label only (N-terminal biotin on a linker: ado-ado)
row,Binder,pKd
1,B1,4.18
2,B2,below the threshold

# Molecular target: SCRIB_2, Q14160
# Sequence (Q14160 857-960): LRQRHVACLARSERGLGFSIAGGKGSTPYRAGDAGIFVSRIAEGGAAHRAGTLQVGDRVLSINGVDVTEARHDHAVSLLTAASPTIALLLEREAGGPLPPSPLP
# Test: holdup assay
# Design: key: below the threshold = too weak to quantify, mostly under pKd 3.1 to 4
# Settings: plain residues with an end cap or a label only (N-terminal biotin on a linker: ado-ado)
row,Binder,pKd
1,B1,3.82
2,B2,3.89

# Molecular target: T10, TX1BP3, O14907
# T10 sequence (O14907 10-122, limits assumed, looked up): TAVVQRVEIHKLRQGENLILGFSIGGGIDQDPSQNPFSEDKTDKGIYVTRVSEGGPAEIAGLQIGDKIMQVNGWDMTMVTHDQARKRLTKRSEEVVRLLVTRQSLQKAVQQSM
# Test: holdup assay
# Design: key: below the threshold = too weak to quantify, mostly under pKd 3.1 to 4
# Settings: plain residues with an end cap or a label only (N-terminal biotin on a linker: ado-ado)
row,Binder,pKd
1,B1,3.96
2,B2,4.16
